From patent US20150246947A1 (BAXALTA, published 2015)

Legend:
[1] = target: T1, human Protein S (human, UniProt P07225 42-676); experiment: competition ELISA IC50
T1 construct: Called 'full length Protein S' / 'human full-length Protein S'; It was coated on plates (ELISA), Eu-labeled (LANCE) or immobilized on a chip (Biacore); also called PS; full length Protein S
T1 sequence: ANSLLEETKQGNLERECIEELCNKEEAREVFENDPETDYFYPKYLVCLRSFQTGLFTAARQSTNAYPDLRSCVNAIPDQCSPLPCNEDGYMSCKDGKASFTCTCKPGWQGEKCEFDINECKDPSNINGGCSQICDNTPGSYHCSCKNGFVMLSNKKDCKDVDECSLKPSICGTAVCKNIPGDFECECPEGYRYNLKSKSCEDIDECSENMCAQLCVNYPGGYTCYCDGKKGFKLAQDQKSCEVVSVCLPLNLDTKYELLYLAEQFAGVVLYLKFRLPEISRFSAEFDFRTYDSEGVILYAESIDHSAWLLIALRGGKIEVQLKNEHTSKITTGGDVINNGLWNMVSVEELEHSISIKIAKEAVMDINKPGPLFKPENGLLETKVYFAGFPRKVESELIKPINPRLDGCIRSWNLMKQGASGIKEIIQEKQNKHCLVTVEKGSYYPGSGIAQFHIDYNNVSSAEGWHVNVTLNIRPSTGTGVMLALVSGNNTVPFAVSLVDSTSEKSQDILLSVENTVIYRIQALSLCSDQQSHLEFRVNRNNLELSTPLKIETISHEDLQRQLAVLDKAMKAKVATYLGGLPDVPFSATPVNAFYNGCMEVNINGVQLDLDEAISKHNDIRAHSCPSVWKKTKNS
Method: The competition (IC50) ELISA was performed using biotinylated tracer peptide JBS0684 to compete for Protein S-binding with candidate peptides. Peptides that compete with the tracer bind the same region of Protein S as the tracer (and each other). Ninety-six well PolySorp plates (Nunc) were coated with 3 μg/mL Protein S in coating buffer (15 mM Na₂CO₃, 35 mM NaHCO₃, pH 9.6) over night. […] Plates were then washed three times with HNaT. JBS0684 was applied at a concentration corresponding to the EC90 value determined in the binding ELISA. A competitor stock solution of peptide (10 mM) was diluted 1/33.3 in HNaT without HSA, and a serial 1/3 dilution was prepared with HNaT with 3% DMSO. The dilution was further diluted with the biotinylated tracer peptide in a ratio of […] (20 μl competitor dilution and 100 μl tracer peptide). The mixture of competitor and tracer peptide was applied to the Protein S-coated microtiter plate and incubated for 1.5 hours. The plates were washed three times with HNaT. Peptide-Protein S binding was detected by applying HRP-conjugated streptavidin to the microtiter plate, incubating the mixture for one hour, washing the plate three times with HNaT, applying TMB (3,3′5,5′-Tetramethylbenzidin), and detecting the subsequent chromogenic conversion of TMB by HRP. IC50 measurements of peptides are provided herein (see, e.g., Table 3). […]

[2] = target: T1, human Protein S; experiment: LANCE TR-FRET; peptide added to preformed C4BP/Protein S complex; competitor C4BP
Method: To investigate the effect of the peptides described herein on PS/C4BP complexes, a LANCE IC50 assay was established using methods similar to those described above. JBS2572 or JBS3216 was added to a preformed C4BP/PS complex. Changes in the complex concentration were followed by recording the TR-FRET signal. For both peptides, a time- and concentration-dependent dissociation of the C4BP/PS complex was observed. […] The time-dependency of the complex reduction was similar for both peptides. After two hours of incubation in the presence of 100 nM JBS2572 or JBS3216, the C4BP/PS complex was reduced to 60% and 50%, respectively. In addition, binding of biotinylated JBS2572 to Protein S was inhibited by C4BP in the LANCE IC50 assay. Pull-down experiments where JBS2697 was coupled to streptavidin sepharose and incubated for one hour at room temperature with (a) Protein S (1.6 pmol) (b) C4BP (8.5 pmol) and (c) Protein S (1.6 pmol)+C4BP (8.5 pmol) supported the results from the modified LANCE IC50 assay. JBS2697 interacted with free Protein S only from experiment (a) with Protein S alone and from experiment (c) with the C4BP-Protein S mixture.

[3] = target: T1, human Protein S; experiment: LANCE TR-FRET competition; Protein S 2 nM, competitor tracer JBS0684 60 nM; Tecan F500 reader
Method: Peptides also were characterized in a competition, homogenous europium-based TR-FRET assay (LANCE IC50 assay) using JBS0684 as a tracer (i.e., competitor for Protein S binding). […] The final volume was 50 μl/well. […] Binding of tracer peptides to soluble europium-labeled Protein S was detected by Streptavidin labeled with an acceptor fluorophor (ULight™). Inhibition of tracer-binding to Protein S by a non-biotinylated peptide results in a decrease of TR-FRET between the Eu-labeled Protein S and ULight™-labeled Streptavidin. IC50 values were obtained from peptide titration curves at constant tracer concentration using non-linear regression of the fluorescence emission signals at 665 nm.

[4] = target: T1, human Protein S; experiment: competition ELISA; Protein S coated; competitor biotinylated tracer JBS0684
Method: The competition (IC50) ELISA was performed using biotinylated tracer peptide JBS0684 to compete for Protein S-binding with candidate peptides. Peptides that compete with the tracer bind the same region of Protein S as the tracer (and each other). Ninety-six well PolySorp plates (Nunc) were coated with 3 μg/mL Protein S in coating buffer (15 mM Na₂CO₃, 35 mM NaHCO₃, pH 9.6) over night. […] Plates were then washed three times with HNaT. JBS0684 was applied at a concentration corresponding to the EC90 value determined in the binding ELISA. A competitor stock solution of peptide (10 mM) was diluted 1/33.3 in HNaT without HSA, and a serial 1/3 dilution was prepared with HNaT with 3% DMSO. The dilution was further diluted with the biotinylated tracer peptide in a ratio of 1:6 (20 μl competitor dilution and 100 μl tracer peptide). The mixture of competitor and tracer peptide was applied to the Protein S-coated microtiter plate and incubated for 1.5 hours. The plates were washed three times with HNaT. Peptide-Protein S binding was detected by applying HRP-conjugated streptavidin to the microtiter plate, incubating the mixture for one hour, washing the plate three times with HNaT, applying TMB (3,3′5,5′-Tetramethylbenzidin), and detecting the subsequent chromogenic conversion of TMB by HRP. IC50 measurements of peptides are provided herein (see, e.g., Table 3).

[5] = target: T1, human Protein S; experiment: cell-based or functional assay
[6] = target: T1, human Protein S; experiment: Biacore (SPR), Protein S immobilized, 25 °C
Method: Protein S affinity also was determined via Biacore (Biacore 3000 or Biacore T200) using human full-length Protein S and human GAS6. Briefly, 1000 RU of Protein S or GAS6 were immobilized on a CMS chip. In order to probe the kinetics of Protein S binding peptides to Protein S, the peptides were injected at various concentrations in a HBS-buffer containing 3 mM CaCl₂ and 1% DMSO to the flow cell and allowed to interact with the immobilized proteins on the sensor chip. The chip could be regenerated with 4 M MgCl₂ in HBS-buffer. Sensorgrams were fitted to a Langmuir binding model for the determination of kₒₙ and koff and the calculation of KD. Peptides were tested on their specificity to Protein S with peptide binding studies on the anti-target GAS6.

- fold increase in affinity compared to JBS2512 [1]: 1.6 fold
- IC50 [2]: 2 nM
- IC50 [3]: ~10 nM
- IC50 [4]: 2.5 nM
- CAT EC50 [5]: 151 nM
- Kd [6]: 6 nM
- koff [6]: 0.00148 s⁻¹
- kon [6]: 248000 M⁻¹ s⁻¹
B1: JBS2572 (peptide)
peptide: Ac-TGLVSAGWYDYNFDHYREFT-NH2
notes: also called parent peptide JBS2572
